Laboratory results taken from paper PMC6401464 (Journal of Virology, 2019).

What was measured:
[1] = target: T1, GI.1 P domain (Norwalk virus) (Norwalk virus (human norovirus GI.1), UniProt Q83884); assay: ITC; Nano-7 (150 μM) injected in 0.5 μl aliquots into GI.1 P domain (15 μM), PBS, 35°C, one-site binding model; settings: both partners purified
T1 construct: also called GI.1 capsid-protruding (P) domain; GI P domain

[2] = target: T1, GI.1 P domain (Norwalk virus); assay: ELISA; direct ELISA; P domain or VLPs coated on MaxiSorp plates, serially diluted Nanobodies (1:1 in PBS, starting at 100 μg/ml) for 1 h at 37°C, detected with HRP-conjugated anti-polyhistidine antibody; cutoff OD490 0.15; settings: both partners purified
[3] = target: T1, GI.1 P domain (Norwalk virus); assay: ITC; Nano-94 (150 μM) injected in 2 μl aliquots into GI.1 P domain (15 μM), PBS, 25°C, one-site binding model; settings: both partners purified
[4] = target: T1, GI.1 P domain (Norwalk virus); assay: ITC; Nano-62 (150 μM) injected in 2 μl aliquots into GI.1 P domain (15 μM), PBS, 30°C, one-site binding model; settings: both partners purified
crystal structure = target: the molecule itself; assay: crystal structure

B1: Nano-7 (VHH)
VHH: QVQLQESGGGLVQAGGSLRLSCAVSGRTFSNYYSGWFRQAPGKEREFLASIRWSDSTTNYADSVKGRFTISRDTAKNTVYLQMNSLKLEDTAVYHCAARRLATYDYWGQGTQVTVSS
notes: also called Nanobody 7
Kd [1]: 0.163 nM
stoichiometry N [1]: ~1
detection level (ELISA, cutoff OD490 0.15) [2]: 0.2 µg/mL

B2: Nano-94 (VHH)
VHH: QVQLQESGGGLVQAGGSLRLSCAASGRMFSINSMGWYRQAPGKERELVATISEAGTTTYADSVRGRFTIARDNAKNTVYLQMNSLNPEDTAVYYCNAYIQLDSTIWFRAYWGQGTQVTVSS
notes: also called Nanobody 94
Kd [3]: 43.4 nM
stoichiometry N [3]: ~1
detection level (ELISA, cutoff OD490 0.15) [2]: 0.1 µg/mL

B3: Nano-62 (VHH)
VHH: QVQLQESGGGLVMTGGSLRLSCAVSGRTIDVSVMAWFRQAPGKEREFVSGMRWSGMTTYSADSVKDRFTISRDKTKNTVYLQMNSLKPEDTAVYYCAARSRFIVGVPQARDLYDYWGQGTQVTVSS
notes: also called Nanobody 62
Kd [4]: 4.58 nM
stoichiometry N [4]: ~1
detection level (ELISA, cutoff OD490 0.15) [2]: 0.1 µg/mL

B4: GI.1 P domain (Norwalk virus) (domain or fragment)
chain: EQKTRPFTLPNLPLSSLSNSRAPLPISSMGISPDNVQSVQFQNGRCTLDGRLVGTTPVSLSHVAKIRGTSNGTVINLTELDGTPFHPFEGPAPIGFPDLGGCDWHINMTQFGHSSQTQYDVDTTPDTFVPHLGSIQANGIGSGNYVGVLSWISPPSHPSGSQVDLWKIPNYGSSITEATHLAPSVYPPGFGEVLVFFMSKMPGPGAYNLPCLLPQEYISHLASEQAPTVGEAALLHYVDPDTGRNLGEFKAYPDGFLTCVPNGASSGPQQLPINGVFVFVSWVSRFYQLKPVGT
notes: also called GI.1 capsid-protruding (P) domain; GI P domain
binding result (crystal structure): binds
